Data reported in patent publication US20190040115A1 (IMMATICS BIOTECHNOLOGIES, published 2019).

Molecular target: T1, HLA-A*02:01 (human)
T1 construct: captured on streptavidin plates; also called peptide-receptive MHC molecules
Assay: UV peptide exchange ELISA (anti-b2m); yield grade: + >10%, ++ >20%, +++ >50, ++++ >75%
Description: Candidate peptides for T cell based therapies according to the present invention were further tested for their MHC binding capacity (affinity). The individual peptide-MHC complexes were produced by UV-ligand exchange, where a UV-sensitive peptide is cleaved upon UV-irradiation, and exchanged with the peptide of interest as analyzed. Only peptide candidates that can effectively bind and stabilize the peptide-receptive MHC molecules prevent dissociation of the MHC complexes. To determine the yield of the exchange reaction, an ELISA was performed based on the detection of the light chain (β2m) of stabilized MHC complexes. The assay was performed as generally described in Rodenko et al. (Rodenko et al., 2006).
96 well MAXISorp plates (NUNC) were coated over night with 2 ug/ml streptavidin in PBS at room temperature, washed 4× and blocked for 1 h at 37° C. in 2% BSA containing blocking buffer. Refolded HLA-A*02:01/MLA-001 monomers served as standards, covering the range of 15-500 ng/ml. Peptide-MHC monomers of the UV-exchange reaction were diluted 100 fold in blocking buffer. Samples were incubated for 1 h at 37° C., washed four times, incubated with 2 ug/ml HRP conjugated anti-β2m for 1 h at 37° C., washed again and detected with TMB solution that is stopped with […]. Absorption was measured at 450 nm. Candidate peptides that show a high exchange yield (preferably higher than 50%, most preferred higher than 75%) are generally preferred for a generation and production of antibodies or fragments thereof, and/or T cell receptors or fragments thereof, as they show sufficient avidity to the MHC molecules and prevent dissociation of the MHC complexes.

B1: LLDPTNVFI (peptide)
peptide: LLDPTNVFI
With B1 the peptide exchange yield was over 75%.

B2: TLLEGLTEL (peptide)
peptide: TLLEGLTEL
For B2, the peptide exchange yield was 50 to 75%.

B3: ILADATAKM (peptide)
peptide: ILADATAKM
B3 was tested, and the peptide exchange yield was over 75%.

B4: ALDDTVLQV (peptide)
peptide: ALDDTVLQV
With B4 the peptide exchange yield was 50 to 75%.

B5: ALFFQLVDV (peptide)
peptide: ALFFQLVDV
Work on B5 yielded a peptide exchange yield of 20 to 50%.

B6: ALDEPTTNL (peptide)
peptide: ALDEPTTNL
For B6, the peptide exchange yield was 50 to 75%.

B7: TLLESIQHV (peptide)
peptide: TLLESIQHV
B7 showed a peptide exchange yield of over 75%.

B8: ALDDIIYRA (peptide)
peptide: ALDDIIYRA
In the case of B8, the peptide exchange yield is reported as 50 to 75%.

B9: LLKDSIVQL (peptide)
peptide: LLKDSIVQL
In the case of B9, the peptide exchange yield is reported as 50 to 75%.

B10: SAAEPTPAV (peptide)
peptide: SAAEPTPAV
Work on B10 yielded a peptide exchange yield of 50 to 75%.

B11: LLPELRDWGV (peptide)
peptide: LLPELRDWGV
In the case of B11, the peptide exchange yield is reported as 50 to 75%.

B12: STLHLVLRL (peptide)
peptide: STLHLVLRL
For B12, the peptide exchange yield was 50 to 75%.

B13: SIIPPLFTV (peptide)
peptide: SIIPPLFTV
For B13, the peptide exchange yield was over 75%.

B14: VLFSSPPVILL (peptide)
peptide: VLFSSPPVILL
B14 was tested, and the peptide exchange yield was over 75%.

B15: FMYNFQLVTL (peptide)
peptide: FMYNFQLVTL
Work on B15 yielded a peptide exchange yield of 20 to 50%.

B16: KALQFLEEV (peptide)
peptide: KALQFLEEV
B16 showed a peptide exchange yield of over 75%.

B17: YSDDIPHAL (peptide)
peptide: YSDDIPHAL
For B17, the peptide exchange yield was 20 to 50%.

B18: FLDSEVSEL (peptide)
peptide: FLDSEVSEL
Binder B18 has a peptide exchange yield of 50 to 75%.

B19: GLCDSIITI (peptide)
peptide: GLCDSIITI
B19 was tested, and the peptide exchange yield was over 75%.

B20: KVSGVILSV (peptide)
peptide: KVSGVILSV
In the case of B20, the peptide exchange yield is reported as over 75%.

B21: TLYEQEIEV (peptide)
peptide: TLYEQEIEV
B21 gave a peptide exchange yield of over 75%.

B22: FLDHEMVFL (peptide)
peptide: FLDHEMVFL
B22 showed a peptide exchange yield of over 75%.

B23: GLIDLEANYL (peptide)
peptide: GLIDLEANYL
B23 was tested, and the peptide exchange yield was over 75%.

B24: NMMSGISSV (peptide)
peptide: NMMSGISSV
In the case of B24, the peptide exchange yield is reported as 50 to 75%.

B25: KLFTQIFGV (peptide)
peptide: KLFTQIFGV
In the case of B25, the peptide exchange yield is reported as over 75%.

B26: KLLAATLLL (peptide)
peptide: KLLAATLLL
B26 showed a peptide exchange yield of over 75%.

B27: VLMEMSYRL (peptide)
peptide: VLMEMSYRL
For B27, the peptide exchange yield was 50 to 75%.

B28: KLKEAVEAI (peptide)
peptide: KLKEAVEAI
With B28 the peptide exchange yield was 20 to 50%.

B29: RLMANPEALKI (peptide)
peptide: RLMANPEALKI
B29 was tested, and the peptide exchange yield was 50 to 75%.

B30: YLDKMNNNI (peptide)
peptide: YLDKMNNNI
For B30, the peptide exchange yield was over 75%.

B31: SVALVIHNV (peptide)
peptide: SVALVIHNV
Binder B31 has a peptide exchange yield of over 75%.

B32: GLFPSNFVTA (peptide)
peptide: GLFPSNFVTA
Binder B32 has a peptide exchange yield of over 75%.

B33: IAAGIFNDL (peptide)
peptide: IAAGIFNDL
Binder B33 has a peptide exchange yield of 10 to 20%.

B34: KVLGDVIEV (peptide)
peptide: KVLGDVIEV
B34 showed a peptide exchange yield of over 75%.

B35: ALIEVLQPLI (peptide)
peptide: ALIEVLQPLI
Work on B35 yielded a peptide exchange yield of over 75%.

B36: ALEPIDITV (peptide)
peptide: ALEPIDITV
For B36, the peptide exchange yield was 50 to 75%.

B37: ILWDTLLRL (peptide)
peptide: ILWDTLLRL
For B37, the peptide exchange yield was over 75%.

B38: LLEEINHFL (peptide)
peptide: LLEEINHFL
With B38 the peptide exchange yield was 50 to 75%.

B39: SILDGLIHL (peptide)
peptide: SILDGLIHL
Binder B39 has a peptide exchange yield of 50 to 75%.

B40: FLDSLIYGA (peptide)
peptide: FLDSLIYGA
For B40, the peptide exchange yield was over 75%.

B41: EVVDKINQV (peptide)
peptide: EVVDKINQV
In the case of B41, the peptide exchange yield is reported as 10 to 20%.

B42: RMDEEFTKI (peptide)
peptide: RMDEEFTKI
B42 was tested, and the peptide exchange yield was 50 to 75%.

B43: ALDDISESI (peptide)
peptide: ALDDISESI
B43 was tested, and the peptide exchange yield was over 75%.

B44: RVAFKINSV (peptide)
peptide: RVAFKINSV
Binder B44 has a peptide exchange yield of 50 to 75%.

B45: VLAVLGAVVAV (peptide)
peptide: VLAVLGAVVAV
In the case of B45, the peptide exchange yield is reported as 50 to 75%.

B46: FAYDGKDYIA (peptide)
peptide: FAYDGKDYIA
Work on B46 yielded a peptide exchange yield of over 75%.

B47: ALDSGFNSV (peptide)
peptide: ALDSGFNSV
B47 showed a peptide exchange yield of over 75%.

B48: FLNEDISKL (peptide)
peptide: FLNEDISKL
In the case of B48, the peptide exchange yield is reported as 50 to 75%.

B49: TLDDIMAAV (peptide)
peptide: TLDDIMAAV
B49 showed a peptide exchange yield of 50 to 75%.

B50: SLIDRTIKM (peptide)
peptide: SLIDRTIKM
B50 was tested, and the peptide exchange yield was 50 to 75%.

B51: VQIGDIVTV (peptide)
peptide: VQIGDIVTV
With B51 the peptide exchange yield was over 75%.

B52: SLKSKVLSV (peptide)
peptide: SLKSKVLSV
B52 was tested, and the peptide exchange yield was over 75%.

B53: FLPFLTTEV (peptide)
peptide: FLPFLTTEV
With B53 the peptide exchange yield was over 75%.

B54: EVISKLYAV (peptide)
peptide: EVISKLYAV
With B54 the peptide exchange yield was 50 to 75%.

B55: FLPAGIVAV (peptide)
peptide: FLPAGIVAV
With B55 the peptide exchange yield was over 75%.

B56: VISPHGIASV (peptide)
peptide: VISPHGIASV
Binder B56 has a peptide exchange yield of over 75%.

B57: AIHTAILTL (peptide)
peptide: AIHTAILTL
Binder B57 has a peptide exchange yield of 20 to 50%.

B58: SLPRPTPQA (peptide)
peptide: SLPRPTPQA
B58 was tested, and the peptide exchange yield was 50 to 75%.

B59: TLLHFLAEL (peptide)
peptide: TLLHFLAEL
Work on B59 yielded a peptide exchange yield of over 75%.

B60: VVVDPIQSV (peptide)
peptide: VVVDPIQSV
Binder B60 has a peptide exchange yield of 50 to 75%.

B61: TLDGNPFLV (peptide)
peptide: TLDGNPFLV
B61 showed a peptide exchange yield of 50 to 75%.

B62: SLADVVDTL (peptide)
peptide: SLADVVDTL
For B62, the peptide exchange yield was over 75%.

B63: LLYEDIPDKV (peptide)
peptide: LLYEDIPDKV
In the case of B63, the peptide exchange yield is reported as 50 to 75%.

B64: VLDSVDVRL (peptide)
peptide: VLDSVDVRL
Binder B64 has a peptide exchange yield of over 75%.

B65: KLAEALYIA (peptide)
peptide: KLAEALYIA
B65 showed a peptide exchange yield of 50 to 75%.

B66: VLLGENVEL (peptide)
peptide: VLLGENVEL
B66 gave a peptide exchange yield of 50 to 75%.

B67: GVVHGVATV (peptide)
peptide: GVVHGVATV
B67 gave a peptide exchange yield of over 75%.
